# In the supplement of paper PMC12042874:
# ± gives the uncertainty stated by the source.
# Experiment: amyloid nucleation score (Sup35N fusion, yeast selection) (log enrichment); library NNK2; higher = more nucleation; inactive = no reads after selection
# Procedure, shortened: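 The nucleation score is the DiMSum log enrichment of output over input reads, centred on the mode score of non-aggregating sequences. Only sequences with 100 or more input reads were scored, using Illumina sequencing of input and output plasmid inserts. Psi-negative yeast expressing Sup35N fused to peptides of 20 random codons were induced 24 hours with 100 μM copper sulfate and grown 7 days at 30°C on medium lacking adenine and uracil.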
substance,measurement,value
ESICAKWFMIDMNSTHWTGF,amyloid nucleation score,-0.614 ± 0.41
KLFCTKVNIRRTSYSVTSIY,amyloid nucleation score,inactive
EWPMPWMFHRCSG,amyloid nucleation score,-0.138 ± 0.37
SLSRNGTVFARFRVSTSRCL,amyloid nucleation score,4.23 ± 0.057
HERLKLAGSQSWVGKLVRQG,amyloid nucleation score,0.917 ± 0.29
TIILG,amyloid nucleation score,-0.637 ± 0.27
RGKFHCFL,amyloid nucleation score,-0.599 ± 0.41
TSRDWCLDVPWKSHYYEVKY,amyloid nucleation score,-0.518 ± 0.48
YEFCSTRQRSELGGK,amyloid nucleation score,5.24 ± 0.069
VISCQKPGDIKTYNRVGTTD,amyloid nucleation score,-0.35 ± 0.23
RLNMYSLSRLVYWAIVMRKM,amyloid nucleation score,0.823 ± 0.25
LMSNINVSIYIFG,amyloid nucleation score,7.782 ± 0.063
VICRGITVARWSF,amyloid nucleation score,3.58 ± 0.065
DMTVLYCMFCSLSWQINCFR,amyloid nucleation score,0.838 ± 0.25
YSLCTTPMRAWVSYVFDVR,amyloid nucleation score,-1.04 ± 0.64
SPALKPLGRMEYGVSGR,amyloid nucleation score,0.072 ± 0.29
LVTRTVWGLK,amyloid nucleation score,0.223 ± 0.21
VCGMLTVIHWFLVIVVIDLV,amyloid nucleation score,0.863 ± 0.58
KLGCYVS,amyloid nucleation score,3.23 ± 0.088
NTLRMIPADFPSGRLEQTKV,amyloid nucleation score,0.552 ± 0.4
DGKNYVKTNSNGIRNGMSIW,amyloid nucleation score,-0.576 ± 0.76
YHWWDLLLTLREPVRWRIQP,amyloid nucleation score,1.55 ± 0.23
ILQWEVSWLCKNHT,amyloid nucleation score,0.683 ± 0.35
FWYLLSLGQIIRSVNLGNWI,amyloid nucleation score,-0.78 ± 1.1
SVYQVRLLFGDLRANKAVVS,amyloid nucleation score,-0.494 ± 0.56
NEVDG,amyloid nucleation score,2.28 ± 0.1
GALYLRDVLVICIMCGKIRY,amyloid nucleation score,2.73 ± 0.1
GKGRMYES,amyloid nucleation score,0.738 ± 0.24
HLLYPSSMVDRALHGLDTRT,amyloid nucleation score,5.358 ± 0.051
NDDKRSRLMRWETSKIRSSV,amyloid nucleation score,3.89 ± 0.052
SGILLLRSLFGWPISERGHN,amyloid nucleation score,0.167 ± 0.56
GSNTSDHDNLD,amyloid nucleation score,-0.238 ± 0.5
RFRTKLECPYMIS,amyloid nucleation score,0.453 ± 0.35
THLWVNSFMIDPFRSESAAT,amyloid nucleation score,-0.499 ± 0.54
NTWYLTKADLDRVGAVMVQT,amyloid nucleation score,inactive
LKWDFRIYTTSWAAKKQGME,amyloid nucleation score,0.095 ± 0.37
RCLNQTTYRNNSPCAVLWCM,amyloid nucleation score,7.028 ± 0.058
LTYIRMQVHLVDYDRDALG,amyloid nucleation score,-1.32 ± 0.49
TCSGLCYIHWACIIGKDNYM,amyloid nucleation score,4.9 ± 0.087
FVCYADTNNGPQVVRTELSV,amyloid nucleation score,-0.299 ± 1.1
RTISMYEELVTELRNSVM,amyloid nucleation score,-0.283 ± 0.33
QGLCRV,amyloid nucleation score,4 ± 0.069
KGFDEVGMMAIGFDSWVGTR,amyloid nucleation score,0.242 ± 0.26
FGYKR,amyloid nucleation score,-0.828 ± 0.61
SWGTRV,amyloid nucleation score,inactive
NTELSVMPGRLSNFIKLNVT,amyloid nucleation score,-0.248 ± 0.65
YYMLVYWDV,amyloid nucleation score,0.56 ± 0.44
QFSLSFSDFCKSLW,amyloid nucleation score,6.287 ± 0.03
SVYLGCRCHVMFVRLTVAFV,amyloid nucleation score,inactive
RAWSIAWYAYPFLIREFECN,amyloid nucleation score,3.35 ± 0.079
VAESVSVT,amyloid nucleation score,0.6 ± 0.24
IPKHLSSSVYAYYDLRLVFV,amyloid nucleation score,0.08 ± 0.22
KSLLWHLQLLAKT,amyloid nucleation score,0.174 ± 0.63
SGGAVAYREAKWWSASNLRS,amyloid nucleation score,0.373 ± 0.24
VWWSLSYFQAVRGQLFHQIV,amyloid nucleation score,-0.139 ± 0.42
TNIFR,amyloid nucleation score,-0.599 ± 1
SRSLNWPSAGKLKSDYEFVV,amyloid nucleation score,-0.675 ± 0.3
YLGMLYFLVASHASDFATYW,amyloid nucleation score,4.16 ± 0.051
CWVAYERSHTFRPKNQFFMH,amyloid nucleation score,1.02 ± 0.53
FLNSWQVGYLSCSSKLVACN,amyloid nucleation score,inactive
RWATVLLDPF,amyloid nucleation score,-0.299 ± 0.79
AAELLLSSGLVRQHAARRQY,amyloid nucleation score,0.695 ± 0.26
VDITL,amyloid nucleation score,-0.779 ± 0.56
SLNLGRLYDLSMMLAWLGHQ,amyloid nucleation score,2.16 ± 0.17
LVESGQGDQSAPNRTDWFNG,amyloid nucleation score,-0.437 ± 0.49
RRGSELINYRR,amyloid nucleation score,-0.341 ± 0.79
RLILFAMTVLLASRGYNVRS,amyloid nucleation score,0.402 ± 0.21
VCGWFHGHWGTWWDVQQRKR,amyloid nucleation score,2.3 ± 0.16
VRMSQKDGKTPFQMFGHLEM,amyloid nucleation score,0.039 ± 0.21
HYMSAHGRRRLKPQVFYT,amyloid nucleation score,inactive
LANFGIIVWCCTCFYDD,amyloid nucleation score,8.268 ± 0.039
VCVLYLTSTGFLGQLY,amyloid nucleation score,2.74 ± 0.14
CLEHHNIWVILLVER,amyloid nucleation score,-0.207 ± 0.63
WGMWCMFHCRVAS,amyloid nucleation score,-0.196 ± 1
TFWLIRTSHRGYRYEKVCTY,amyloid nucleation score,-0.017 ± 0.49
CYSLWRFEQMKLGMKLRGMT,amyloid nucleation score,0.003 ± 0.43
IACIEHWALGWLLCVSGVRV,amyloid nucleation score,0.534 ± 0.5
KLTPYRISKMPSWLSA,amyloid nucleation score,inactive
PDLCEFLMLYMMITLNFCIN,amyloid nucleation score,-0.214 ± 1
CFSCLISWADMNSLLCYLEL,amyloid nucleation score,-1.66 ± 0.48
DYNFIQRNNCGALCKYAKTL,amyloid nucleation score,-1.55 ± 0.62
LWAPAYCLIKC,amyloid nucleation score,0.851 ± 0.57
SFRANDNSFGCQWRRFLISG,amyloid nucleation score,0.032 ± 0.42
QLCFA,amyloid nucleation score,-0.031 ± 0.47
GYRNPLLLILLDRVKFSCSR,amyloid nucleation score,-1.19 ± 1
